# Assay: yeast display, Sf9 membrane polyspecificity reagent, FACS + sequencing; frameworks hold sequencing errors
# Summary of the method: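 Nanobodies came from a synthetic yeast display library in Saccharomyces cerevisiae BJ5465, induced with galactose for 36–48 hours and stained for 1 hour at 4 °C with 10% biotinylated, detergent-solubilized Sf9 membrane reagent. Cells were enriched on streptavidin microbeads and then FACS-sorted, with low and high (top ~1%) gates set on anti-HA fluorescence for expression and streptavidin fluorescence for reagent binding. Each polyreactivity label reflects the gate a clone came from. Genes were amplified by colony PCR, sequenced by MiSeq 2 × 250 and filtered by CDR length.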
row,Sequence,polyreactivity (PSR sort gate)
1,QVQLVESGGGLVQAGGSLRLSCAASGSTFSRYAMGWYRPAPGKERELVAAITRSGGGTHYADSVKGRFTISRDNAKNTVYLQMNSLKPEETAVYYCAKRQSGYRYDYWGQGTEVTVSS,low polyreactivity
2,QVQHVESGGCLLQAGGSLRLSCAASGSIFEPYTMGWYRQAPGKERELVAAITGSGGSTFYADSVKGRFTISRDNAKNTVYLQMNSLKPEVTALYYCNAYAYPYTDVDYWVQGTQVTVSS,low polyreactivity
3,QVQLVESGGGLVQAGGSLRLSCAASGFIFAYYAMGRYRQAPGKEREFVAVINWSGGITYYADSVKGRFTISRDNAKNTVYLQMNSLKPEDTAVYYCAADELAGYDYWGQGTQVTVSS,low polyreactivity
4,QVQPQESGGGQVQAGSCLRLSCTASGYIFLYAYMGRYRQAPGKEREFVATITDGTSTYYADSVKGRFTISRNNAKNIVYLQMNSLKPEDTAVYYCAADAGGGYPGDEDWGQGTQVTVSS,low polyreactivity
5,QVQLVESGGGLVQAGGSLRLSCAASGSIFWYYAMGWYRQAPGKERELVADITSTGGSTYYADSVKGRFTISRDNAKNTVYLQMNSLKPEDTAVYYCAADNTYSEEDYWGQGTQVNVSS,high polyreactivity
6,QVQLVESGGGLVQAGGSLRLSCAASGSTFDVYAMGWYRQAPGKERELVAAISYIGDNTYYADSVKGRFTISRDNAKNTVYLQMNSLKPEDTAVYYCAAEAEHYSFQDYYVEYDYWGQGTQVTVSS,high polyreactivity
7,QVQLVESGGGLVQAGGSLRLSCAASGRIFVSNTMGWYRQAPGKERELVAVIRTDSGSTYYADSVKGRFTISRDNAKNTVYLQMNSLKPEDTAVYYCAKVAYFASYRTGFYYWGQGTQVTVSS,high polyreactivity
8,QVQLVESGRGLVQAGGSLRLSCAASGSTINYKAMGWYRQAPGKERELVAAIDSGVSTNYADSVKGLFTISRDHAKNTVYLQMNSLKPEDTAVYYCNADPDYFDYWGQGTQVTVSS,low polyreactivity
9,QVQLVESGGGLVQAGGSLRLSCAASGRTFTRNAMGWYRQAPGKERELVAAISAGGTRTYYADSVKGRFTISRDNAKNTVYLQMNSLIPEDTAVYYCAKPIAPAPNAYPAYDYWGQGTQVTVSS,high polyreactivity
10,QVQLVESGGGLVQAGGSLRLSCAASGFTFYTNAMGWYRQAPGKERELVAAITKSDGSTYYADSVKGRFTISRDNAKNTVYLQMNSLKPEDTAVYYCATERRYPYYGGIVIYDYWGQGTQVTVSS,low polyreactivity
11,QVQLVDSGGGLVHAGGSLRLSCAASGSSFTFYAMGWYRQAPGKERELVARISITGGSTYYADSVKGRFTISRDNAKNTVYLHMNSLKPEDTAVYYCAARYYGEHYDYWGQGTQVTVSS,low polyreactivity
12,QVQLVESGGGLVQAGGSLRLSCAASGFISYTYMGWYRQAPGKERELVAGITGSGGSTYYADSVKGRFTISRDNAKNTVYLQMNILKPEDTAVYYCAAPRYLSYVRRYDYWGQGTQVTVSS,high polyreactivity
13,QVQLVESGGGLVQAGGSLRLSCAASGRIFPVYAMGWYRQAPGKERELVAAISKRDGSTSYADSVKGRFTISRDNAKNTVYLEMNSLKPEDTAVYYCAATYLLERPTSIHPRYDYWGQGTQVTVSS,low polyreactivity
14,QVQLVESRRGLVQAGGSLRLSCAASGSIFSGYVMGRYRKAPGKETELVAAITWSGGRTYYADSVKGRFTISRDYAKNTVYLQMNSLKPEDTAVYYCAKRNIKSSGYYYWGQGTQVTVSS,high polyreactivity
15,QVQLVESGGGLVQAGGRLRLSCAASGSTFRLYAMGRYRQAPGKERELVAAIRGSGGSTYYADSVKGRFTISRDNAKNTVYLQMNSMKPEDNAVYYCAARVVVARRSYVGYGYWGQGTQVTVSS,high polyreactivity
16,QVQLVESGGGLVQAGGSLRLSCAASGITFFYYAMGWYRQAPGKERELVAAISTSGGRTYYADSVKGRFTISRDNAKNTVYLQMNSLKPEDTAVYYCAARSRVPPAGPRYDYWGQGTQVTVSS,high polyreactivity
17,QVQLVESGGGLVQAGGSLRLSCAASGITFVRNAMGWYRQAPGKEREFVAAISGSGVSTYADSVKGRFTISRDNAKNTVYLQMNSLNPEDTAVYYCARDFPWSYAWYDYWGQGTQVTVSS,low polyreactivity
18,QVQLVESGGGLVQAGGSLRLSCAASGSTFPPNAMGWYRQAPGKEGELVADSSDSSTYYADSVKGRFTISRDNAKNTVYLQMNSLKPEDTAVYYCAAADAGLSSKSYGQQYDYWGQGTQVTVSS,low polyreactivity
19,QLQLVESGGGLVQAGGSLRLSCAASGGIFPYYAMGWYRQAPGKEMELVAAISRSGGITYYADSVKGRFTISRDNAKNTVYLQMNSLKPEDTAVYYCAALSRWRYKRYDYWGQGTQVTVSS,high polyreactivity
20,QVQLVESGGGLVQAGGSLRLSCAASGRTLQYNAMGWYRQAPGKEMELVAAISSSGGSTYYADSVKGRFTISRDNAKNTVYLQMNSLKPEDTALYYCNAYSQSWNFYGDGDYWGQGTLVTVSS,low polyreactivity
21,QVQLVESGGGLVQAGGSHRLSCAASGSIFRRYAMGWYRQAPGKERELVAAIDSGGNTYADSVKGRFTISRDNAKNTVYLQMISLQPEDTAVYYCSADGGEFSSYGYWGQGTQVTVSS,low polyreactivity
22,QVQLVASGGGLVQAGGSLRLSSAASGFTFYGYAMGWYSQARGKERELVATIRRSTGSTYYADSVKGRFTISRDNAKNTVYLQINSLIPEDTAVYYCATRVWFPITSYDYWGQGTQVTVSS,low polyreactivity

row,Sequence,polyreactivity (PSR sort gate)
1,QVQLVESGGGLVQAGGSLRLSCAASGFIFLIYAMGWYRQAPGKERELVATIRYSGGRTYYADSVKGRFTISRDNAKNTVYLQMNSLKPEDTAVYYCAARSVWFSGQGRMNYWGQGTQVTVSS,high polyreactivity
2,QDQLVESGGGLVQAGGSLRLSCAASGITFFYYAMGWYRQAPGKERELVAAINWSGRTYYADSVKGRFTISRDNAKNTVYLQINSLKPEDTAVYYCAAVTYGPGVSVMDYWGQGTQVTVSS,low polyreactivity
3,QVQLVESGGGLVQAGGSLRLSCADSGGTFYRYARGWYRQAPGKERELVAAISRRGGSTYYADSVKGRFTISRDNAKNTVYLQMNSLKPDDTAVYYCDKDVSDSRFDYWGQGTQVTVSS,high polyreactivity
4,QVHLVESGGGLVKAGGSLRLSCAASGRTFPYNAMGWYRQAPGKERELVAAISSGGSTNYADSVKGRFTISRDNAKNTVYLQMNSLKPEDTAVYYCATKYQRRPYRYYYWGQGTQVTVSS,low polyreactivity
5,QVKLVESGGGIVQAGGSLRLSCAASGRTFGRNAMGWYRQAPGKERELVASITKRGGSTYYADSVKGRFTISRDNAKDTVYLQMNSLKPEDTAVYYCAVEAYDYWGQGTQVTVSS,high polyreactivity
6,QDQLEESGGGLVQEGGSLRLSCAATGFTLAFNAMGWYRQAPGKERELVASITSSSGSTYYADSVKGRFTISRDNAKITVFLQMNSLKPEDTAVYYCARDLAIPQVLSQPIFGYWGQGTQVTVSS,low polyreactivity
7,QVQLVESGGGLVQAGGSLRLSCAASGFILSPNTMGWYRPAPGKERELVAAISTDVSTYADSVKGRFTISRDNAKNTVYFQMNSLKPEDTAVYYCNADDFGYASYEYWGQGTQVTVSS,low polyreactivity
8,QVQLVESGGGLVQAGGSLRLSCAASGFIFTQNGMGWYRQAPGKERELVAAISWSAGGTYYADSVKGRFTISRDNAKNTVYLQMNSLKPEDTAVYYCNARVYNVFREFNSWGQGTQVTVSS,low polyreactivity
9,QVQLVESGGGLVQAGGSLRLSCAASGYIFYYYAMGWYRQAPGKESELVAAISSTVSTNYADSVKGRFTISRDNAKNTVYLQMNSLKPEDSAVYYCAAAQRVNHVWYDYWGQGTQVTVSS,low polyreactivity
10,QFQLVESGGGLVQAGGSLRLSCAASGFIFFNYAMGWYRQAPGKERELVASINWSTGSTYADSVKGRFTISRDNAKNTVYLQMNSLKPEDSAVYYCNTDHRRVAIPGGYWGQGTQVTVSS,low polyreactivity
11,QVQLQESGGGLVQAGGSLRLSCAASGSISGPQVMVWYRQAPGKEREFVAAINVGANTYYADNVKGRFTISRDNAKNTVYLQMNSLKPEDTAVYYCAAVYYGDIGHESWGQGTQVTVSC,low polyreactivity
12,QVQLVESGGGLDQAGGSLRLICAASGFIFVWYAMGWYRPAPGKERELVAAISRRGGGTYYADSVKGRFTISRDNAKNTVYLQMNSLKPEDTAVYYCAAGSYYRYGYDFNYWGQGTQVTVSS,high polyreactivity
13,QVQLVESGGGLVQAGGSLRLSCAASGSIFGVYAMGWYRQAPGKERELVATISRSGAITYYADSVKGRFTISRDNAKNTVYLQMNSLKPEDTAVYYCAADFFSRDWGQGTQVTVSS,low polyreactivity
14,QVQLVESVGGLLQAGGSLRVSCAASGFTFYRYAMGWYRQAPGKERELVAAITRGGSTNYADSVKRRFTISRDNAKKTVYLQMNSLKPEDTAVYYCAVVSQRTPLRGDYWGQGTQVTVSS,high polyreactivity
15,QVQLVESGGGLVQAGGSLRLSCAASGFTFNRNAMGWYRQAPGKERELVAAISWSGGSTYYADSVKGRFTISRDNAKYTVYLQMHSLKPEDTAVYYCAQGYRRVYGPFYYWGQGTQVTVSS,low polyreactivity
16,QVQLVESGGGLVQAGGSLRLSCAASGSIFITYAMGWYRQAPGKERELVAAIRDSGDRTYYADSVKGRFTISRDNAKKTVYLQMNSLKPEDTAVYYCAARIWTGRGRKLGYGYDYWGQGTQVTVSS,low polyreactivity
17,QVQLVESGGGLVQAGGSLRLSCDASGRIFYSYDIGWYRQAHGKARELVATISSAGSTYYADSVKGRFTISRDNAKNTVYLQMNSLKPEDTAVYYSARRSGWWTRMDSWGQGTQVTVSS,high polyreactivity
18,QVQLVESGGGLVQAGGSLRLSCAASGYTFYQNTMGWYRQAPGKERELVADITRRGGSTYYADSVKGRFTISRDNAKNTVYLQINSLKPEDTAVYYCAARYGPWTGYATYRYASSRYNYWGQGTQVTVSS,high polyreactivity
19,QDQLVESGGGLVQAGGSLRITCAASGSIFSWYTMGRYRQAPGKEMELVAAISGCGSRTYYADSVKGRFTISRDIEKNTVYLQMNSLKPEDTALYYCNTVNTWSVYYAYDYWGQGTQVTVSS,high polyreactivity
20,QVQLVESGGGLVQAGGSLRLSCAASGFTFYNYAMGWYRQAPGKERELVAAITSRGGSTYYADSVKGRFTISRDNAKNTVYLQMNSLKPEDTAVYYCNAVAKLYYWRYDYWGQGTQVTVSS,low polyreactivity
21,QVQLVESGGGLVQAGGSLRLSCAASGSIFAVNAMGWYRQAPGKERELVAAISWNGGSTYYADSVKGRFTISRDNAKNTVYLQMNSLKPEDTAVYYCATVRYKYYWSYYRYGYWGQGTQVTVSS,high polyreactivity
